Test results published in US20210155670A1, “SYSTEMS AND METHODS FOR THE PREPARATION OF PEPTIDE-MHC-I COMPLEXES WITH NATIVE GLYCAN MODIFICATIONS” (The Regents of the University of California, priority 2019, published 2021).

Biological target: T cell receptor specific for HLA-A*02:01/NYESO, on Jurkat cells / NY-ESO-1 specific T cell line
Assay: flow cytometry, PE tetramer staining; the negative cells are said to have lost the TCR

Substance	tetramer-negative population of cells [%]
CHO-derived PE-HLA-A*02:01 tetramer loaded with NY-ESO-1 peptide (single-chain complex, TAPBPR-exchanged) (peptide-MHC)	9
conventionally refolded NYESO/HLA-A*02:01 tetramer (from UniProt P61769 21-119) (peptide-MHC)	9
